T1: FcγRIIa R (FcγRIIa, allotype with Arg at position 131), extracellular domain with C-terminal His tag (human, UniProt P12318 34-217)
T1 construct: extracellular domain; also called FcγRIIa R type; 2aR
T1 sequence (looked up): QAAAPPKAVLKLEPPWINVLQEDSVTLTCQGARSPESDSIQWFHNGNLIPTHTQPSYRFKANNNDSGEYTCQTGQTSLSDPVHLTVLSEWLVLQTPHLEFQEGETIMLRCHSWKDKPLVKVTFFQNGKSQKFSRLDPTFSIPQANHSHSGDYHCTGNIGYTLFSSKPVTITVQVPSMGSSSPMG

B1: GpH7-A5/GpH7-B3 variant Y296_07I/GpL16-k0 (antibody, human IgG1, kappa)
heavy 1: not shown
heavy 2: not shown
light: DIVMTQSPLSLPVTPGEPASISCQASESLVHSNRNTYLHWYLQKPGQSPQLLIYKVSNRFSGVPDRFSGSGSGTDFTLKISRVEAEDVGVYYCSQNTHVPPTFGQGTKVEIERTVAAPSVFIFPPSDEQLKSGTASVVCLLNNFYPREAKVQWKVDNALQSGNSQESVTEQDSKDSTYSLSSTLTLSKADYEKHKVYACEVTHQGLSSPVTKSFNRGEC
notes: also called He Ab
B2: GpH7-B3 variant K334_01G/GpL16-k0 (antibody, human IgG1, kappa)
heavy: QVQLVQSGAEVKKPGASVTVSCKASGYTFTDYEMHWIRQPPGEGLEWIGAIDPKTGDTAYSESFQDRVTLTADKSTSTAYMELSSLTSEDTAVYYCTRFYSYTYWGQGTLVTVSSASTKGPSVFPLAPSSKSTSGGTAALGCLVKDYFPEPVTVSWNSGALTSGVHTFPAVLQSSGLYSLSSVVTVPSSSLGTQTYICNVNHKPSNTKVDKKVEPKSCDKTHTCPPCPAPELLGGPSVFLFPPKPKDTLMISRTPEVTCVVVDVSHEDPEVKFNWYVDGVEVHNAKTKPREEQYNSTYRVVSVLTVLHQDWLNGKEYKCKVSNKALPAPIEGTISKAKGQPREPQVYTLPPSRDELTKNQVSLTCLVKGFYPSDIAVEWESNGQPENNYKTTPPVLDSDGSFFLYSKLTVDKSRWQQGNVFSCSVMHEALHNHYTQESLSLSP
light: B1 light
notes: also called Ho Ab K334_01G
B3: GpH7-B3 variant I332_01G/GpL16-k0 (antibody, human IgG1, kappa)
heavy: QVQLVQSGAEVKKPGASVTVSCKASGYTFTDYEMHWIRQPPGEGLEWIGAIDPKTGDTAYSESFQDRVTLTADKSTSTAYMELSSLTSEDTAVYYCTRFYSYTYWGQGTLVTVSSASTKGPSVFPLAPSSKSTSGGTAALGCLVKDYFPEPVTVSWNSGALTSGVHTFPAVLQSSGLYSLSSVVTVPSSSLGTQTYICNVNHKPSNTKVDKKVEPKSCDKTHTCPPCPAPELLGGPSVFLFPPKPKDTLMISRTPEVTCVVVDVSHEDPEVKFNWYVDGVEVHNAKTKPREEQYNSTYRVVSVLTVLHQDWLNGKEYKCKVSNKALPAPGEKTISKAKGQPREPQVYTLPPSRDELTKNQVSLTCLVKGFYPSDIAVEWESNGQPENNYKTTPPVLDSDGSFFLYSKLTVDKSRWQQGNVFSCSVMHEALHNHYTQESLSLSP
light: B1 light
notes: also called Ho Ab I332_01G
B4: GpH7-B3 variant K334_02A/GpL16-k0 (antibody, human IgG1, kappa)
heavy: not shown
light: B1 light
notes: also called Ho Ab K334_02A
B5: GpH7-B3 variant I336_09D/GpL16-k0 (antibody, human IgG1, kappa)
heavy: not shown
light: B1 light
notes: also called Ho Ab I336_09D
B6: GpH7-B3 variant K326_09D/GpL16-k0 (antibody, human IgG1, kappa)
heavy: not shown
light: B1 light
notes: also called Ho Ab K326_09D
B7: GpH7-B3 variant H268_10E/GpL16-k0 (antibody, human IgG1, kappa)
heavy: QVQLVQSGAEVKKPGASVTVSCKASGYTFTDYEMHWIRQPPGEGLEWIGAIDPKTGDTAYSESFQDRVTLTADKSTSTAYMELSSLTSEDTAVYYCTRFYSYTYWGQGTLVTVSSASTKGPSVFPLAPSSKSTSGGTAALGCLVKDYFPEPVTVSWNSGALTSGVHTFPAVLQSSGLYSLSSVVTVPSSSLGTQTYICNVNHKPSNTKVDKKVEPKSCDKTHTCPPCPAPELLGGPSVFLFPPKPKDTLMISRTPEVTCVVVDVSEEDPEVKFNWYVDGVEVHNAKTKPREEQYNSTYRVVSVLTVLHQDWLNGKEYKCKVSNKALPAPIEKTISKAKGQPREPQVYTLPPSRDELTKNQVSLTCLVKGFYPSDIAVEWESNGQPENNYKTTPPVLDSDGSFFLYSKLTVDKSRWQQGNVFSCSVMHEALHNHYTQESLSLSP
light: B1 light
notes: also called Ho Ab H268_10E
B8: GpH7-B3 variant K334_05P/GpL16-k0 (antibody, human IgG1, kappa)
heavy: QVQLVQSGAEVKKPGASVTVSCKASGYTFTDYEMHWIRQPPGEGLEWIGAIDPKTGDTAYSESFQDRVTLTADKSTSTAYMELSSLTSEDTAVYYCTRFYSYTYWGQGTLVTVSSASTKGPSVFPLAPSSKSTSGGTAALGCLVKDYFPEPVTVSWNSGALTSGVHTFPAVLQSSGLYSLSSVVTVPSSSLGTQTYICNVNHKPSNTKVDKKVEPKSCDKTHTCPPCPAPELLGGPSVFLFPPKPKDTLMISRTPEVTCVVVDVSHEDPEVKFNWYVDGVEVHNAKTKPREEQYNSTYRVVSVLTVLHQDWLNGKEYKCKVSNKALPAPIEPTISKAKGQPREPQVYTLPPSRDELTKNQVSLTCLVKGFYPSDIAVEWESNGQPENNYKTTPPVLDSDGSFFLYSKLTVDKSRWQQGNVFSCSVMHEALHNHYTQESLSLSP
light: B1 light
notes: also called Ho Ab K334_05P
B9: GpH7-B3 variant K334_10E/GpL16-k0 (antibody, human IgG1, kappa)
heavy: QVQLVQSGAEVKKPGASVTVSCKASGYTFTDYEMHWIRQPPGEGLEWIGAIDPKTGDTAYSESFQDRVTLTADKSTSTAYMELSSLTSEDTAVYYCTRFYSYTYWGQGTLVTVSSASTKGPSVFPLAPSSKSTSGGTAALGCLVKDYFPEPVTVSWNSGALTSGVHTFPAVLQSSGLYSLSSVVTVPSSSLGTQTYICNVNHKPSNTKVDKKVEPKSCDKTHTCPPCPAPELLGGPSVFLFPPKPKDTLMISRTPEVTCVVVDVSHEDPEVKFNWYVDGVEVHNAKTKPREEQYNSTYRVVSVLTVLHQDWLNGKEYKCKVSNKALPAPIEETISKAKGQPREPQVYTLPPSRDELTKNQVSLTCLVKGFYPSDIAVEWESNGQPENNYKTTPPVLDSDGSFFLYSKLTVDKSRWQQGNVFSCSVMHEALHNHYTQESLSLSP
light: B1 light
notes: also called Ho Ab K334_10E
B10: GpH7-B3 variant I336_18N/GpL16-k0 (antibody, human IgG1, kappa)
heavy: not shown
light: B1 light
notes: also called Ho Ab I336_18N
B11: GpH7-A5/GpH7-B3 variant Y296_20W/GpL16-k0 (antibody, human IgG1, kappa)
heavy 1: not shown
heavy 2: not shown
light: B1 light
notes: also called He Ab
B12: GpH7-B3 variant I336_13S/GpL16-k0 (antibody, human IgG1, kappa)
heavy: not shown
light: B1 light
notes: also called Ho Ab I336_13S
B13: GpH7-B3 variant I332_09D/GpL16-k0 (antibody, human IgG1, kappa)
heavy: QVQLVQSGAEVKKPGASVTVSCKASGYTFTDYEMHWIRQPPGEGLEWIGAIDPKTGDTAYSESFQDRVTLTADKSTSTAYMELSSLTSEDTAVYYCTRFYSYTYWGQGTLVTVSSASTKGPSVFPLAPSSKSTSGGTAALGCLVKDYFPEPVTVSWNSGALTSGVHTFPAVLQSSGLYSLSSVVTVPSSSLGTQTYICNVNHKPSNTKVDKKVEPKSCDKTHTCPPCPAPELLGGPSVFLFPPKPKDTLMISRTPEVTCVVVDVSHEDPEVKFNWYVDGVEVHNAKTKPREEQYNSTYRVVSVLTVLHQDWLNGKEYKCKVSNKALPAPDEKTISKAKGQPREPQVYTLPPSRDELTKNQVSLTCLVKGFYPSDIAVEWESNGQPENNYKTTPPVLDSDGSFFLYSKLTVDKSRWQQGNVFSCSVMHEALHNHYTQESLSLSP
light: B1 light
notes: also called Ho Ab I332_09D
B14: GpH7-B3 variant K334_03V/GpL16-k0 (antibody, human IgG1, kappa)
heavy: not shown
light: B1 light
notes: also called Ho Ab K334_03V
B15: GpH7-B3 variant K326_10E/GpL16-k0 (antibody, human IgG1, kappa)
heavy: not shown
light: B1 light
notes: also called Ho Ab K326_10E
B16: GpH7-B3 variant K334_14T/GpL16-k0 (antibody, human IgG1, kappa)
heavy: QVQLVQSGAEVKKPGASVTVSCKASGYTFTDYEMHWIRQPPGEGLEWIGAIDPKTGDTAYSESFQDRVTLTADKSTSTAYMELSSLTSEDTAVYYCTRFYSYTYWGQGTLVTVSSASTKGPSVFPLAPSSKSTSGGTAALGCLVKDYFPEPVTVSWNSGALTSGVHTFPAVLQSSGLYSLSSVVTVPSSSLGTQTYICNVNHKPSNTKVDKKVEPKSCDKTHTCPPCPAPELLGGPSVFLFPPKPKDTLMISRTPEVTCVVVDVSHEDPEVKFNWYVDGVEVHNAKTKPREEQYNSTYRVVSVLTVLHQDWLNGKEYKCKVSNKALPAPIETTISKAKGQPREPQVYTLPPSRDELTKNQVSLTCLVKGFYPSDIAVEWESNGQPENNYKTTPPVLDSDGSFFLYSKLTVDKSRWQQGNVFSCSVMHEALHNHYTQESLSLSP
light: B1 light
notes: also called Ho Ab K334_14T
B17: GpH7-A5/GpH7-B3 variant Y296_13S/GpL16-k0 (antibody, human IgG1, kappa)
heavy 1: not shown
heavy 2: not shown
light: B1 light
notes: also called He Ab
B18: GpH7-B3 variant K334_07I/GpL16-k0 (antibody, human IgG1, kappa)
heavy: not shown
light: B1 light
notes: also called Ho Ab K334_07I
B19: GpH7-B3 variant K334_13S/GpL16-k0 (antibody, human IgG1, kappa)
heavy: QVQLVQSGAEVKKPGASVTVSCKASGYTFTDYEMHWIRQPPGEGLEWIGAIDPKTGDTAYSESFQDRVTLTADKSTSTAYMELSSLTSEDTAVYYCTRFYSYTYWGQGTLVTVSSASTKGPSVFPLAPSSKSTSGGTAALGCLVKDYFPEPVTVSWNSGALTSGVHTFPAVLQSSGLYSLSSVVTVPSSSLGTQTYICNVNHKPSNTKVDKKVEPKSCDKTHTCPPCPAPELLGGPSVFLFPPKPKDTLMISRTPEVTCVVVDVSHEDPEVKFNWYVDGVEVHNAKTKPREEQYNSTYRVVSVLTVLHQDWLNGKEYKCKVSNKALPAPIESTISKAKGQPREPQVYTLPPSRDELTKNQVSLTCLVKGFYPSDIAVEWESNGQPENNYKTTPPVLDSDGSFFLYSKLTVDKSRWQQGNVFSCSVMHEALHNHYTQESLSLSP
light: B1 light
notes: also called Ho Ab K334_13S
B20: GpH7-B3 variant K334_08L/GpL16-k0 (antibody, human IgG1, kappa)
heavy: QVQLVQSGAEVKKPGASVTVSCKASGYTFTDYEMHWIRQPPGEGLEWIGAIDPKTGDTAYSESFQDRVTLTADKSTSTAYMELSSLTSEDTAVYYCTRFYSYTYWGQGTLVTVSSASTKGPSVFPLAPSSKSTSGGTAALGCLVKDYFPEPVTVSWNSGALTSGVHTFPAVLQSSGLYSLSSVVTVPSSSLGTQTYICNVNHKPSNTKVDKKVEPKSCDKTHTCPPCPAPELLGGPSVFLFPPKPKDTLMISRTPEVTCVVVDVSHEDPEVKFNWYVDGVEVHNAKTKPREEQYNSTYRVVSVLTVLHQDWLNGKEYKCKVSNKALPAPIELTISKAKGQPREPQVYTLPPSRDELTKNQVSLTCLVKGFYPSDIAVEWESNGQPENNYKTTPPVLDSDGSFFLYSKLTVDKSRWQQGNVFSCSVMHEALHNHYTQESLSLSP
light: B1 light
notes: also called Ho Ab K334_08L
B21: GpH7-B3 variant H268_09D/GpL16-k0 (antibody, human IgG1, kappa)
heavy: not shown
light: B1 light
notes: also called Ho Ab H268_09D
B22: GpH7-B3 variant I332_14T/GpL16-k0 (antibody, human IgG1, kappa)
heavy: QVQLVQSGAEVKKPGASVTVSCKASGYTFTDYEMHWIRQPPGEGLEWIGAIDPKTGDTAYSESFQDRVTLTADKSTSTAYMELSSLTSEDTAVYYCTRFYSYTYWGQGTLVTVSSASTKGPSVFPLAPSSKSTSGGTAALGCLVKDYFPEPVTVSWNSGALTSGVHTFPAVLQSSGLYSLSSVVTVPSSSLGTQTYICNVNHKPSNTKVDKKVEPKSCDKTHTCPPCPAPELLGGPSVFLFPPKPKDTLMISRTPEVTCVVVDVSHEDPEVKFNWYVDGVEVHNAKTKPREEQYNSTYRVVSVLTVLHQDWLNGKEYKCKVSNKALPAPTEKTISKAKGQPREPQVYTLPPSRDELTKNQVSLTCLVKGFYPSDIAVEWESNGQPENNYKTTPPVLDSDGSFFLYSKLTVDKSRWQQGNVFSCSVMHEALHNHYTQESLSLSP
light: B1 light
notes: also called Ho Ab I332_14T
B23: GpH7-B3 variant A330_04F/GpL16-k0 (antibody, human IgG1, kappa)
heavy: not shown
light: B1 light
notes: also called Ho Ab A330_04F
B24: GpH7-B3 variant I332_13S/GpL16-k0 (antibody, human IgG1, kappa)
heavy: not shown
light: B1 light
notes: also called Ho Ab I332_13S
B25: GpH7-A5/GpH7-B3 variant Y296_10E/GpL16-k0 (antibody, human IgG1, kappa)
heavy 1: not shown
heavy 2: not shown
light: B1 light
notes: also called He Ab
B26: GpH7-A5/GpH7-B3 variant Y296_19Q/GpL16-k0 (antibody, human IgG1, kappa)
heavy 1: not shown
heavy 2: not shown
light: B1 light
notes: also called He Ab
B27: GpH7-A5/GpH7-B3 variant Y296_09D/GpL16-k0 (antibody, human IgG1, kappa)
heavy 1: not shown
heavy 2: not shown
light: B1 light
notes: also called He Ab

Legend:
[1] = target: T1, FcγRIIa R (FcγRIIa, allotype with Arg …); experiment: SPR (Biacore), antibody captured on antigen peptide chip, FcγR as analyte; relative binding
[2] = target: T2, FcγRIIIa extracellular domain with C-terminal His tag (human, UniProt P08637 17-208); experiment: SPR Biacore, captured antibody, FcγR analyte, relative binding
T2 construct: extracellular domain; also called FcgRIIIa; 3a; not shown: His tag attached to the C terminus
Method: Analysis of interaction between objective antibody and the FcγR was carried out using Biacore T100 (GE Healthcare). HBS-EP+ (GE Healthcare) was used as the running buffer, and the measurement temperature was set to 25° C. Chips produced by immobilizing the antigen peptide by the amine coupling method to a Series S Sencor Chip CM5 (GE Healthcare), or alternatively, chips produced by allowing preliminarily biotinylated antigen peptides to interact with and immobilize onto a Series S Sensor Chip SA (certified) (GE Healthcare) were used. Antibodies of interest were captured onto an antigen peptide-immobilized chip, and allowed to interact to each FcγR diluted with running buffer. To regenerate and repeatedly use the chip, the antibodies captured on the chip were washed off by reacting 10 mM glycine-HCl, pH 1.5.

T2 sequence (P08637 17-208): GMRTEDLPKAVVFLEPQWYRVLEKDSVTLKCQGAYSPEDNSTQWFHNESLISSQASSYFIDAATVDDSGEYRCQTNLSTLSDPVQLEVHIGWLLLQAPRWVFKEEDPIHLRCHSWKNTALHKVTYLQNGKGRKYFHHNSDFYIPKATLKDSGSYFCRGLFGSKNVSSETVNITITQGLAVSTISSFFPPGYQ

Binder | He/Con_2aR [1] | Ho/Con_3a [2]
B1 | 101 % of GpH7-A5/GpH7-B3/GpL16-k0 (=100) | –
B2 | – | 104 % of HoCon Ab GpH7-B3/GpL16-k0 (=100)
B3 | – | 104 % of HoCon Ab GpH7-B3/GpL16-k0 (=100)
B4 | – | 154 % of HoCon Ab GpH7-B3/GpL16-k0 (=100)
B5 | – | 111 % of HoCon Ab GpH7-B3/GpL16-k0 (=100)
B6 | – | 163 % of HoCon Ab GpH7-B3/GpL16-k0 (=100)
B7 | – | 206 % of HoCon Ab GpH7-B3/GpL16-k0 (=100)
B8 | – | 165 % of HoCon Ab GpH7-B3/GpL16-k0 (=100)
B9 | – | 206 % of HoCon Ab GpH7-B3/GpL16-k0 (=100)
B10 | – | 101 % of HoCon Ab GpH7-B3/GpL16-k0 (=100)
B11 | 110 % of GpH7-A5/GpH7-B3/GpL16-k0 (=100) | –
B12 | – | 119 % of HoCon Ab GpH7-B3/GpL16-k0 (=100)
B13 | – | 255 % of HoCon Ab GpH7-B3/GpL16-k0 (=100)
B14 | – | 170 % of HoCon Ab GpH7-B3/GpL16-k0 (=100)
B15 | – | 157 % of HoCon Ab GpH7-B3/GpL16-k0 (=100)
B16 | – | 163 % of HoCon Ab GpH7-B3/GpL16-k0 (=100)
B17 | 102 % of GpH7-A5/GpH7-B3/GpL16-k0 (=100) | –
B18 | – | 180 % of HoCon Ab GpH7-B3/GpL16-k0 (=100)
B19 | – | 153 % of HoCon Ab GpH7-B3/GpL16-k0 (=100)
B20 | – | 178 % of HoCon Ab GpH7-B3/GpL16-k0 (=100)
B21 | – | 220 % of HoCon Ab GpH7-B3/GpL16-k0 (=100)
B22 | – | 138 % of HoCon Ab GpH7-B3/GpL16-k0 (=100)
B23 | – | 174 % of HoCon Ab GpH7-B3/GpL16-k0 (=100)
B24 | – | 112 % of HoCon Ab GpH7-B3/GpL16-k0 (=100)
B25 | 103 % of GpH7-A5/GpH7-B3/GpL16-k0 (=100) | –
B26 | 102 % of GpH7-A5/GpH7-B3/GpL16-k0 (=100) | –
B27 | 106 % of GpH7-A5/GpH7-B3/GpL16-k0 (=100) | –
